These results are taken from US20260250651, “CAS12 PROTEINS AND USES THEREOF” (GUANGZHOU REFORGENE MEDICINE CO., LTD., published 2026).

Data set [1] deals with T1, Cas12i (wild-type, from CN111757889B).
T1 chain: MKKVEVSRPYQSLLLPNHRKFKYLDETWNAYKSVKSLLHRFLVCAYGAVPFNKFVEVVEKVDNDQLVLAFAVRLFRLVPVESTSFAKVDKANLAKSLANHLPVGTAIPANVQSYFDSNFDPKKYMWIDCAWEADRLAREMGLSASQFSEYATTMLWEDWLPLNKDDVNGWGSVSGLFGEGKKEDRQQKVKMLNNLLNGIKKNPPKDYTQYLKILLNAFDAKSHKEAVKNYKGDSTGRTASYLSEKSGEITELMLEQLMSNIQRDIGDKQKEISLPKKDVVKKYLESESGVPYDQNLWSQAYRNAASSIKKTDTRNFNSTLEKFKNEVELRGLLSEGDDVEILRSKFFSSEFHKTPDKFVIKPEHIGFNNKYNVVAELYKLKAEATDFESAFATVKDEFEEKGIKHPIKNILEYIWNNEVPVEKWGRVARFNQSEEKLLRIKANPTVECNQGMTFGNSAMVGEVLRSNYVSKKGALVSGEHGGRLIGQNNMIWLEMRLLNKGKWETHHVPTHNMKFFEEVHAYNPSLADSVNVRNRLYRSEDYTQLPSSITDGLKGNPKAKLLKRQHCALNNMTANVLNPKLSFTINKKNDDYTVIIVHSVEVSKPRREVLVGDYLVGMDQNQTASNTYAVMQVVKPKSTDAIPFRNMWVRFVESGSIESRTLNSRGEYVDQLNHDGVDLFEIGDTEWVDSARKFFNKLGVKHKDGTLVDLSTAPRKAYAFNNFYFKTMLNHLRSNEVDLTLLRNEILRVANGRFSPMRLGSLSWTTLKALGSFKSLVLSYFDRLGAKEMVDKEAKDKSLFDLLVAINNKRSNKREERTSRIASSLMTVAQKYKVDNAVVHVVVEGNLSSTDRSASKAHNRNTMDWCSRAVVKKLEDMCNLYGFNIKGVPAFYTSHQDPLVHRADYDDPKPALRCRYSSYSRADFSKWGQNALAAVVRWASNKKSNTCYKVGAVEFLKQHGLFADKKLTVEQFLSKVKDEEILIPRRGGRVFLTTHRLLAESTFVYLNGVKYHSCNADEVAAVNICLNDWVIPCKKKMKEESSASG
Description: cell_activity; 293T indels, reference; PAM not stated. Here is the method:
(§1) Plating: The 293T cell line was plated when the confluence reached 70-80%, and the number of cells seeded in a 24-well plate was 5*10\hat{ }5 cells/well.
(§2) Transfection: After 12-14 hours of plating, transfection was performed. 100 μl of Opti-MEM, 1.5 μl of PEI (Yisheng Bio, Polyethylenimine Linear (PEI) MW25000), 250 ng of the mutant clone plasmid from Example 2, and 250 ng of gRNA plasmid for targeting endogenous genes were added to each well of a 24-well plate. The mixture was incubated at room temperature for 20 minutes and then added to 293T cells for transfection. After transfection overnight, the medium was replaced with fresh medium and cultured for the next period.
(§3) DNA extraction, PCR amplification, and Sanger sequencing: After culturing for 72 hours, cells were washed with PBS, and then 100 μl of cell lysis buffer (Viagen, DirectPCR® Lysis Reagent (Cell)) was added for lysis to obtain a lysate containing genomic DNA. The genomic DNA was amplified in the region near the target sequence, and the PCR product was sent to a sequencing company for Sanger sequencing.

The next data set deals with T2, Cas12i-99 (N295R,N260R,G705R,D590R).
T2 chain: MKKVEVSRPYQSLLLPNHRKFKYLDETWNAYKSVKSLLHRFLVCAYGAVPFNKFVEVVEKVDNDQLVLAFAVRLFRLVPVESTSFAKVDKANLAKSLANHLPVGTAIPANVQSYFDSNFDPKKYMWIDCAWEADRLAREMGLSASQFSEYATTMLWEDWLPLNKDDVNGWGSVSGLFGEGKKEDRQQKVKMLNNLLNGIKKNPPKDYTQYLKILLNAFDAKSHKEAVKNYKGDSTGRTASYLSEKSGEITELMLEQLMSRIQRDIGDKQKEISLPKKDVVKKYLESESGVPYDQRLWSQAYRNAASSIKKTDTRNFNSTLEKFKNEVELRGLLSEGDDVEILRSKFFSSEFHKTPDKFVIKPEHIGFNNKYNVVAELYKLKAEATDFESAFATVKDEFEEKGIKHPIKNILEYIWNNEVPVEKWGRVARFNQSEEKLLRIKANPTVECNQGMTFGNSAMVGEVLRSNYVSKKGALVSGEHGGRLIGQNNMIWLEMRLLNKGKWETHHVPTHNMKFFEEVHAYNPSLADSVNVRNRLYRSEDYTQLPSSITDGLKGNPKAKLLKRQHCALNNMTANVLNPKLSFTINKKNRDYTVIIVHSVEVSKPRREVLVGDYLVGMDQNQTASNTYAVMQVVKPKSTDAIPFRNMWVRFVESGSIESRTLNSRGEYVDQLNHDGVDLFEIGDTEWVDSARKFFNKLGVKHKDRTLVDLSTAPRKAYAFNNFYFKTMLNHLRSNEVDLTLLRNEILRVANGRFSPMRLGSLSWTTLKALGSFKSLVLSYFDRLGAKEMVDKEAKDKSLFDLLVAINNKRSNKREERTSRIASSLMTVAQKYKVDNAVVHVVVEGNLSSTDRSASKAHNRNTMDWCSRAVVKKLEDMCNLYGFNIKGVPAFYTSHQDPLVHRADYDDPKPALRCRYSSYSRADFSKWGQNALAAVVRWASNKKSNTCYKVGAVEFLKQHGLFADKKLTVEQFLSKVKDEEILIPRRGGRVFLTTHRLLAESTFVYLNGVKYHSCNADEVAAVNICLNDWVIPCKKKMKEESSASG
The data set can be described thus: cell_activity; 293T indels. The method, then: as §1, §2, §3

B1: gRNA-TTR ; TTR target (ssRNA ; dsDNA)
RNA: AGAGAAUGUGUGCAUAGUCACACCAGUAAGAUUUGGUGUCUAU
DNA 1: CAGTAAGATTTGGTGTCTAT
DNA 2: ATAGACACCAAATCTTACTG
In the case of B1, the indel editing activity in data set [1] is 1 fold of wild type. The “relative indel editing efficiency” value with Cas12i-99 is 1.19 fold of Cas12i-69.

B2: gRNA-HBG ; HBG target (ssRNA ; dsDNA)
RNA: AGAGAAUGUGUGCAUAGUCACACACAAGGCAAACUUGACCAAU
DNA 1: ACAAGGCAAACTTGACCAAT
DNA 2: ATTGGTCAAGTTTGCCTTGT
For B2, the indel editing activity in data set [1] was 1 fold of wild type. In the data set with Cas12i-99, the “relative indel editing efficiency” value was 7 fold of wild type.

B3: gRNA-HBB ; HBB target (ssRNA ; dsDNA)
RNA: AGAGAAUGUGUGCAUAGUCACACUAUGCAGAAAUAUUGCUAUUGCCU
DNA 1: TATGCAGAAATATTGCTATTGCCT
DNA 2: AGGCAATAGCAATATTTCTGCATA
As to B3, the “relative indel editing efficiency” value with Cas12i-99 was 0.9 fold of Cas12i-69.
